Results taken from the RNAGym collection of RNA variant scans (doi:10.1073/pnas.2313332121).
Fewer inactive variants are shown than the library holds.

B1: TPR 5TU (parent)
chain: GGAUCUUCUCGAUCUAACAAAAAAGACAAAUCUGCCACAAAGCUUGAGAGCAUCUUCGGAUGCAGAGGCGGCAGCCUUCGGUGGCGCGAUAGCGCCAACGUUCUCAACUAUGACACGCAAAACGCGUGCUCCGUUGAAUGGAGUUUAUCAUG

Variants of: B1
Test: polymerase ribozyme fitness, log enrichment relative to wild type (log ratio); higher = more active; in vitro selection for triplet polymerase activity
How it was run: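 A single round of triplicate in vitro selection, including frozen incubation at −7 °C, was applied to PCR-built, transcribed mutant libraries of each subunit of a heterodimeric triplet polymerase ribozyme. Illumina sequencing of input and output libraries retained genotypes with ≥10 input reads and ≥1 read per output. Fitness is the base-2 logarithm of genotype enrichment divided by wild-type enrichment, from inverse-variance-weighted replicate averages.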

Compared with G86C U109G C118G, G25C C57A C63A G92C A113C U134A is lower in “polymerase ribozyme fitness (log ratio)” value: -3.5 for the first, at most -4.2 for the second.

C38U U56A G70C A91U U104A A107C U145A and A20G G50C C54G C105G A106U G133C U151A cannot be ordered by “polymerase ribozyme fitness (log ratio)” value: at most -4.2 for the first, at most -4.2 for the second.

Compared with C35A G83U, C87U U145G is higher in “polymerase ribozyme fitness (log ratio)” value: at most -4.2 for the first, -1.51 for the second.

A23C A28C G46A U55A C96U and A26U C36U U44A C57A G68C C118A U135G cannot be ordered by “polymerase ribozyme fitness (log ratio)” value: at most -4.2 for the first, at most -4.2 for the second.

Compared with C10G U56A C57U C69U C95A C99U C108U A121U A147G, A26C C57A A60C G88A U109G A110G C118G is higher in “polymerase ribozyme fitness (log ratio)” value: at most -4.2 for the first, -3.98 for the second.

Going from A64G U82G A91U C95U A110U U111G to A52C C96G, the “polymerase ribozyme fitness (log ratio)” value rises from at most -4.2 to -1.36.

Going from A47C G50C U53A A89G A106U A120C G136A to G83C C96U A147U G152A, the “polymerase ribozyme fitness (log ratio)” value rises from at most -4.2 to -1.98.

First: U134A A137G
Second: A16U G50A A60C G83C G141C
The “polymerase ribozyme fitness (log ratio)” value of the first is higher: -3.22 for the first, at most -4.2 for the second.

Going from C54U C57G C87A G128A to C27U C85A, the “polymerase ribozyme fitness (log ratio)” value rises from at most -4.2 to -2.04.

Compared with A24U U102C A120G A121C, A21C C85A U127A is lower in “polymerase ribozyme fitness (log ratio)” value: -2.13 for the first, at most -4.2 for the second.

U53A U55A G83U C123A G128U A147U and A49C G86A C129A C132U U148A G152U cannot be ordered by “polymerase ribozyme fitness (log ratio)” value: at most -4.2 for the first, at most -4.2 for the second.

Compared with A47C U127C, C85U C93G is lower in “polymerase ribozyme fitness (log ratio)” value: -1.6 for the first, -3.83 for the second.

A12U G71A A107C and U55G G88U A97G U135G U148C cannot be ordered by “polymerase ribozyme fitness (log ratio)” value: at most -4.2 for the first, at most -4.2 for the second.

C32U G50C C54G A73G G88A C96G and A12U C87A C103G U135G cannot be ordered by “polymerase ribozyme fitness (log ratio)” value: at most -4.2 for the first, at most -4.2 for the second.

Compared with A16U A17U G48U U104G G124A C131G, C79G G124U U139C is lower in “polymerase ribozyme fitness (log ratio)” value: -4.15 for the first, at most -4.2 for the second.

Compared with G86A A107U, A29C A41U G81C G86C C105G A106U is lower in “polymerase ribozyme fitness (log ratio)” value: -3.39 for the first, at most -4.2 for the second.

First: A52U U82G U135G A150U
Second: C14A A20C C27G
The “polymerase ribozyme fitness (log ratio)” value of the first is higher: -2.62 for the first, at most -4.2 for the second.

Compared with U53G C57A C85U A115U A121C, G59C G94C A119C U146G is higher in “polymerase ribozyme fitness (log ratio)” value: -2.93 for the first, -1.61 for the second.

A21U A24U U44A U53G U78G A97U A137C G141C and A91U C118A A142C U144G cannot be ordered by “polymerase ribozyme fitness (log ratio)” value: at most -4.2 for the first, at most -4.2 for the second.

Compared with A52C A60C C79U C93A G152U, A19G G126C is higher in “polymerase ribozyme fitness (log ratio)” value: at most -4.2 for the first, 0.693 for the second.

Compared with A30U C95U, G84A G124A is higher in “polymerase ribozyme fitness (log ratio)” value: -3.31 for the first, -0.287 for the second.

A17U A30U G42A C95A A138G and A23C C27G U61A U77A A91U G136C cannot be ordered by “polymerase ribozyme fitness (log ratio)” value: at most -4.2 for the first, at most -4.2 for the second.

First: G86U A119G
Second: A17G G59U G80A C85A
The “polymerase ribozyme fitness (log ratio)” value of the first is lower: -1.54 for the first, -0.447 for the second.

G46U C51G C54U and U31C C38G A47G C51A U56A G83C U146C U148C cannot be ordered by “polymerase ribozyme fitness (log ratio)” value: at most -4.2 for the first, at most -4.2 for the second.

Going from A47U U55A A89G A120U U144G to C5A U56A G58A C72U C87U U109G G136A U144C, the “polymerase ribozyme fitness (log ratio)” value falls from -0.697 to -3.93.

First: U55A C129A
Second: A3U C114U C118G A137C G141C
The “polymerase ribozyme fitness (log ratio)” value of the first is higher: -2.11 for the first, at most -4.2 for the second.

A26U A60G C69A A97U C114U U135C and C8A A73U G83A C93U A138C U145C cannot be ordered by “polymerase ribozyme fitness (log ratio)” value: at most -4.2 for the first, at most -4.2 for the second.

First: A23C C36U A60C G86A A121U
Second: G59A C85G G126U
The “polymerase ribozyme fitness (log ratio)” value of the first is lower: at most -4.2 for the first, -2.21 for the second.

U13C U53G C87A A120U A142U U146A and C5G A12G A22U C38A U44G C75A C79U C93A G133U cannot be ordered by “polymerase ribozyme fitness (log ratio)” value: at most -4.2 for the first, at most -4.2 for the second.

Compared with A12U C116G, U6A A26C A98U G136U is lower in “polymerase ribozyme fitness (log ratio)” value: -0.634 for the first, -4.09 for the second.

Compared with A39C G58A G59C, U134A A142C is lower in “polymerase ribozyme fitness (log ratio)” value: -1.49 for the first, -2.66 for the second.

Going from C79U C108G U109G U139G U145C to U6A A22U G59U A73U U109G, the “polymerase ribozyme fitness (log ratio)” value rises from at most -4.2 to -3.52.

First: G46C U56A G84A G133C
Second: A23G G59A G68U A142U
The “polymerase ribozyme fitness (log ratio)” value of the first is higher: -2.71 for the first, at most -4.2 for the second.

Compared with G70A C87U A106G, U33G A40G C54U U55G A98G A147U A150C is lower in “polymerase ribozyme fitness (log ratio)” value: -2.89 for the first, at most -4.2 for the second.

G46C G59A U82A C85G A110C A113U G126U G128A and G48A G88A U134C U144G cannot be ordered by “polymerase ribozyme fitness (log ratio)” value: at most -4.2 for the first, at most -4.2 for the second.

Going from C96G C108U to A12U C54U G59C A60G U144G, the “polymerase ribozyme fitness (log ratio)” value rises from -2.5 to -0.245.

Compared with A91U A106U G117A G136U, A28U C35U is higher in “polymerase ribozyme fitness (log ratio)” value: at most -4.2 for the first, -4.12 for the second.

A22G A28G A52U G80A C93G U101C A113U G140U and U4A C43G cannot be ordered by “polymerase ribozyme fitness (log ratio)” value: at most -4.2 for the first, at most -4.2 for the second.

Going from U7G A12G C18G C32U G94C A115U to A28U C54U, the “polymerase ribozyme fitness (log ratio)” value rises from at most -4.2 to -3.76.

First: U53A A119U
Second: A49C G59U U77C G81C U109G G141C
The “polymerase ribozyme fitness (log ratio)” value of the first is higher: -2.1 for the first, at most -4.2 for the second.

G86C G92A and C51A A52U C63U C99G A106C A119G G126U cannot be ordered by “polymerase ribozyme fitness (log ratio)” value: at most -4.2 for the first, at most -4.2 for the second.

In the case of U77G C103G, the “polymerase ribozyme fitness (log ratio)” value is reported as at most -4.2.
